For test [1], the target named is T1, cell surface mesothelin on human cancer cell lines NCI-H226, OVCAR3, NCI-N87 and AsPC-1 (human, UniProt Q13421 296-598).
T1 construct: whole, on cells
Kind of test: flow cytometry on NCI-N87 cells; Alexa Fluor 488 anti-human IgG secondary antibody. The method, then: (§1) After washing, cells were incubated with Alexa Fluor 488 conjugated secondary antibody (anti-human IgG, Life Technologies) for 20 minutes at 4C. Cells were washed and then fluorescence intensity of the cells was quantified by flow cytometry.

Test [2] has as its target T1, cell surface mesothelin on human cancer …. Briefly: flow cytometry on AsPC-1 cells; Alexa Fluor 488 anti-human IgG secondary antibody. The procedure: as §1
On the technique in general: Flow cytometry measures light scatter and fluorescence of single cells or particles in a stream.

Test [3] shares this target. Briefly: flow cytometry on NCI-H226 cells; Alexa Fluor 488 anti-human IgG secondary antibody. The method, then: as §1

T1 sequence (Q13421 other isoform, or with tags, fused parts or gaps limits assumed): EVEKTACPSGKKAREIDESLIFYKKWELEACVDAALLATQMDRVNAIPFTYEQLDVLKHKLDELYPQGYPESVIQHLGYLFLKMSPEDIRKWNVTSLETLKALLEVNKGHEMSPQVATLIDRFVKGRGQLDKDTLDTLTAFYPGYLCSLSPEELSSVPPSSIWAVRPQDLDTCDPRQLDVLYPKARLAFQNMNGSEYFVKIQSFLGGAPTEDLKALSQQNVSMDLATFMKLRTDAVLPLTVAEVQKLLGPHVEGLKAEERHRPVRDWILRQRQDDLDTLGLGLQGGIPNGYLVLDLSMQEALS

B1: R3C7 (original llama VHH, Anti-MSLN-6) as human IgG1 Fc fusion (Fc fusion)
chain: QVQLVESGGGLVEAGDSLRLSCVVSGRTLESYVMAWFRQAPGKEREAVASINWSSGRLIYADFVKGRFTISRDYEKNTIYLSMNNLKPEDTAVYYCAAGRYWGQGTQVTVSS
notes: also called R3-E08(C7); not shown: human IgG1 Fc (hIgG1 Fc)
One may read the EC50 (read off the curve) as the midpoint of the concentration-response curve. Low values mean a more potent agent, high ones a less potent agent. Take B1: the “EC50 (read off the curve)” value in test [1] is roughly 4 ng/mL; in test [2] it was roughly 6 ng/mL; in test [3], roughly 10 ng/mL.

B2: R2G12 (original llama VHH, Anti-MSLN-9) as human IgG1 Fc fusion (Fc fusion)
chain: QVQLVESGGGLVQAGGSLRLSCAASGITFPVNAYGWYRQAPGKQRDLVAIISAGGTTNYADSVKGRFAISKDNVNNTVYLQMNSLTSEDTGVYYCYLQRRIGMLRDYWGQGTQVTVSS
notes: also called R2-G06(G12); not shown: human IgG1 Fc (hIgG1 Fc)
For the molecule B2, the half-maximal effective concentration (EC50 (read off the curve)) in test [1] was roughly 5 ng/mL; in test [2], roughly 7 ng/mL; in test [3], roughly 10 ng/mL.

The values are drawn from US20210340272A1 (ANWITA BIOSCIENCES, published 2021).
